Results on 9 molecules are retold here after patent publication US20090285813A1.

For this assay, the target named is human CD3 (human) (UniProt P07766). Nature of the assay: cell-based or functional assay.
human CD3 (human), sequence (P07766 23-207): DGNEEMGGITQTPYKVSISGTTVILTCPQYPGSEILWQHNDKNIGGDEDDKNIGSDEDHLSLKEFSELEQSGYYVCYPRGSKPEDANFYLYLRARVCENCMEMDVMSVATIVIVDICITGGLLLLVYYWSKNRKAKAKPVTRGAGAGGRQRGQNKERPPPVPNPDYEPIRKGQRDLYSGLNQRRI

B1: anti-CD3 HuFR antibody 1 (heavy chain BD20610, light chain BD21130) (antibody, part only; not given: Heavy stretch before framework 4, V domains shown, part only)
VH, part: QVQLVESGAEVKKPGASVKVSCKASGYTFTRYTMHWVRQAPGKGLEWMGYINPSRGYTNYNQKFKDRVTISVDTSKNQFSLKLSSVTAADTAVYYCARYYDDHYCLDYVTVSSASTKGPS
VL: DIQMTQSPSSLSASVGDRVTITCSASSSVSYMNWYQQKPGQPPKLLIYDTSKLASGVPDRFSGSGSGTDFTLKISRVEAEDVGVYYCQQWSSNPFTFGQGTKVEIKFGQGTKVEIKR
With B1, the Apo-One Apoptosis Assay, 12.5 ng/ml stood at 797; the Apo-One Apoptosis Assay, 12.5 ng/ml, second block (ratio to Fc null) was 1.6; the Apo-One Apoptosis Assay, 25 ng/ml turned out to be 1220; the Apo-One Apoptosis Assay, 25 ng/ml, second block (ratio to Fc null) worked out at 1.7. The Apo-One Apoptosis Assay, 50 ng/ml was 1750 and the Apo-One Apoptosis Assay, 50 ng/ml, second block (ratio to Fc null) worked out at 1.5.

B2: anti-CD3 HuFR antibody 9 (heavy chain BD20613, light chain BD21138) (antibody, part only; not given: few VH framework 4 residues, V domains shown, part only)
VH, part: QVQLQESGPGLVKPSETLSLTCAVSGYTFTRYTMHWVRQAPGKGLEWVGYINPSRGYTNYNQKFKDRFTISRDDSKNTAYLQMNSLKTEDTAVYYCTRYYDDHYCLDYVTVSSASTKGPS
VL: DIQMTQSPSTLSASVGDRVTITCSASSSVSYMNWYQQKPGKAPKLLIYDTSKLASGVPDRFSGSGSGTDFTLKISRVEAEDVGVYYCQQWSSNPFTFGQGTKVEIKFGQGTKVEIKR
Turning to B2, the Apo-One Apoptosis Assay, 12.5 ng/ml is 885; the Apo-One Apoptosis Assay, 12.5 ng/ml, second block (ratio to Fc null) worked out at 1.8; the Apo-One Apoptosis Assay, 25 ng/ml was determined as 1380; the Apo-One Apoptosis Assay, 25 ng/ml, second block (ratio to Fc null) was 1.9. The Apo-One Apoptosis Assay, 50 ng/ml is 2040 and the Apo-One Apoptosis Assay, 50 ng/ml, second block (ratio to Fc null) was 1.7.

B3: anti-CD3 HuFR antibody 2 (heavy chain BD20613, light chain BD21131) (antibody, part only; not given: few VH framework 4 residues, V domains shown, part only)
VH, part: QVQLQESGPGLVKPSETLSLTCAVSGYTFTRYTMHWVRQAPGKGLEWVGYINPSRGYTNYNQKFKDRFTISRDDSKNTAYLQMNSLKTEDTAVYYCTRYYDDHYCLDYVTVSSASTKGPS
VL: DIQMTQSPSTLSASVGDRVTITCSASSSVSYMNWYQQKPGQAPRLLIYDTSKLASGVPDRFSGSGSGTDFTLKISRVEAEDVGVYYCQQWSSNPFTFGQGTKVEIKFGQGTKVEIKR
Turning to B3, the Apo-One Apoptosis Assay, 12.5 ng/ml worked out at 854; the Apo-One Apoptosis Assay, 12.5 ng/ml, second block (ratio to Fc null) was determined as 1.7; the Apo-One Apoptosis Assay, 25 ng/ml stood at 1440; the Apo-One Apoptosis Assay, 25 ng/ml, second block (ratio to Fc null) is 2. Moreover, the Apo-One Apoptosis Assay, 50 ng/ml came out at 2160 and the Apo-One Apoptosis Assay, 50 ng/ml, second block (ratio to Fc null) is 1.8.

B4: anti-CD3 HuFR antibody 7 (heavy chain BD20611, light chain BD21136) (antibody, part only; not given: Heavy stretch before framework 4, V domains shown, part only)
VH, part: QVQLVESGAEVKKPGASVKVSCKASGYTFTRYTMHWVRQAPGKGLEWMGYINPSRGYTNYNQKFKDRLTISKDTSKNQVVLTMTNMDPVDTATYYCARYYDDHYCLDYVTVSSASTKGPS
VL: DIQMTQSPSTLSASVGDRVTITCSASSSVSYMNWYQQKPGKAPKLLIYDTSKLASGIPDRFSGSGSGTDFTLTISRLEPEDFAVYYCQQWSSNPFTFGQGTKVEIKFGQGTKVEIKR
Turning to B4, the Apo-One Apoptosis Assay, 12.5 ng/ml was 2270; the Apo-One Apoptosis Assay, 12.5 ng/ml, second block (ratio to Fc null) is 4.6; the Apo-One Apoptosis Assay, 25 ng/ml turned out to be 3480; the Apo-One Apoptosis Assay, 25 ng/ml, second block (ratio to Fc null) is 4.8. The Apo-One Apoptosis Assay, 50 ng/ml is 4740 and the Apo-One Apoptosis Assay, 50 ng/ml, second block (ratio to Fc null) came out at 4.

B5: anti-CD3 HuFR antibody 3 (heavy chain BD20611, light chain BD21132) (antibody, part only; not given: Heavy stretch before framework 4, V domains shown, part only)
VH, part: QVQLVESGAEVKKPGASVKVSCKASGYTFTRYTMHWVRQAPGKGLEWMGYINPSRGYTNYNQKFKDRLTISKDTSKNQVVLTMTNMDPVDTATYYCARYYDDHYCLDYVTVSSASTKGPS
VL: EIVLTQSPATLSLSPGERATLSCSASSSVSYMNWYQQKPGKAPKLLIYDTSKLASGVPSRFSGSGSGTEFTLTISSLQPDDFATYYCQQWSSNPFTFGQGTKVEIKFGQGTKVEIKR
Consider B5, for which the Apo-One Apoptosis Assay, 12.5 ng/ml was 649; the Apo-One Apoptosis Assay, 12.5 ng/ml, second block (ratio to Fc null) amounted to 1.3; the Apo-One Apoptosis Assay, 25 ng/ml came out at 854; the Apo-One Apoptosis Assay, 25 ng/ml, second block (ratio to Fc null) amounted to 1.2. Also, the Apo-One Apoptosis Assay, 50 ng/ml stood at 1130 and the Apo-One Apoptosis Assay, 50 ng/ml, second block (ratio to Fc null) amounted to 1.

B6: anti-CD3 HuFR antibody 8 (heavy chain BD20611, light chain BD21137) (antibody, part only; not given: few VH framework 4 residues, V domains shown, part only)
VH, part: QVQLVESGAEVKKPGASVKVSCKASGYTFTRYTMHWVRQAPGKGLEWMGYINPSRGYTNYNQKFKDRLTISKDTSKNQVVLTMTNMDPVDTATYYCARYYDDHYCLDYVTVSSASTKGPS
VL: DIQMTQSPSTLSASVGDRVTITCSASSSVSYMNWYQQKPGQPPKLLIYDTSKLASGVPSRFSGSGSGTDFTFTISSLQPEDIATYYCQQWSSNPFTFGQGTKVEIKFGQGTKVEIKR
Consider B6, for which the Apo-One Apoptosis Assay, 12.5 ng/ml was 969; the Apo-One Apoptosis Assay, 12.5 ng/ml, second block (ratio to Fc null) came to 2; the Apo-One Apoptosis Assay, 25 ng/ml was 1630; the Apo-One Apoptosis Assay, 25 ng/ml, second block (ratio to Fc null) came out at 2.2. In addition, the Apo-One Apoptosis Assay, 50 ng/ml amounted to 2560 and the Apo-One Apoptosis Assay, 50 ng/ml, second block (ratio to Fc null) is 2.1.

B7: anti-CD3 HuFR antibody 5 (heavy chain BD20611, light chain BD21134) (antibody, part only; not given: Heavy stretch before framework 4, V domains shown, part only)
VH, part: QVQLVESGAEVKKPGASVKVSCKASGYTFTRYTMHWVRQAPGKGLEWMGYINPSRGYTNYNQKFKDRLTISKDTSKNQVVLTMTNMDPVDTATYYCARYYDDHYCLDYVTVSSASTKGPS
VL: EIVMTQSPATLSVSPGERATLSCSASSSVSYMNWYQQKPGQPPKLLIYDTSKLASGVPSRFSGSGSGTEFTLTISSLQPDDFATYYCQQWSSNPFTFGQGTKVEIKFGQGTKVEIKR
B7: the Apo-One Apoptosis Assay, 12.5 ng/ml is 1160; the Apo-One Apoptosis Assay, 12.5 ng/ml, second block (ratio to Fc null) amounted to 2.4; the Apo-One Apoptosis Assay, 25 ng/ml amounted to 1660; the Apo-One Apoptosis Assay, 25 ng/ml, second block (ratio to Fc null) stood at 2.3. Besides, the Apo-One Apoptosis Assay, 50 ng/ml turned out to be 2160 and the Apo-One Apoptosis Assay, 50 ng/ml, second block (ratio to Fc null) stood at 1.8.

B8: anti-CD3 HuFR antibody 6 (heavy chain BD20611, light chain BD21135) (antibody, part only; not given: Heavy stretch before framework 4, V domains shown, part only)
VH, part: QVQLVESGAEVKKPGASVKVSCKASGYTFTRYTMHWVRQAPGKGLEWMGYINPSRGYTNYNQKFKDRLTISKDTSKNQVVLTMTNMDPVDTATYYCARYYDDHYCLDYVTVSSASTKGPS
VL: EIVMTQSPATLSVSPGERATLSCSASSSVSYMNWYQQKPGQAPRLLIYDTSKLASGVPDRFSGSGSGTDFTLTISSLQAEDVAVYYCQQWSSNPFTFGQGTKVEIKFGQGTKVEIKR
As for B8, the Apo-One Apoptosis Assay, 12.5 ng/ml was 1280; the Apo-One Apoptosis Assay, 12.5 ng/ml, second block (ratio to Fc null) was determined as 2.6; the Apo-One Apoptosis Assay, 25 ng/ml came out at 2220; the Apo-One Apoptosis Assay, 25 ng/ml, second block (ratio to Fc null) worked out at 3.1. For the same molecule, the Apo-One Apoptosis Assay, 50 ng/ml is 3500 and the Apo-One Apoptosis Assay, 50 ng/ml, second block (ratio to Fc null) came to 2.9.

B9: anti-CD3 HuFR antibody 4 (heavy chain BD20611, light chain BD21133) (antibody, part only; not given: Heavy stretch before framework 4, V domains shown, part only)
VH, part: QVQLVESGAEVKKPGASVKVSCKASGYTFTRYTMHWVRQAPGKGLEWMGYINPSRGYTNYNQKFKDRLTISKDTSKNQVVLTMTNMDPVDTATYYCARYYDDHYCLDYVTVSSASTKGPS
VL: DIVMTQSPLSLPVTPGEPASISCSASSSVSYMNWYQQKPGQPPKLLIYDTSKLASGVPSRFSGSGSGTEFTLTISSLQPDDFATYYCQQWSSNPFTFGQGTKVEIKFGQGTKVEIKR
Turning to B9, the Apo-One Apoptosis Assay, 12.5 ng/ml was 1390; the Apo-One Apoptosis Assay, 12.5 ng/ml, second block (ratio to Fc null) amounted to 2.8; the Apo-One Apoptosis Assay, 25 ng/ml amounted to 2350; the Apo-One Apoptosis Assay, 25 ng/ml, second block (ratio to Fc null) was found to be 3.2. Further, the Apo-One Apoptosis Assay, 50 ng/ml was found to be 3300 and the Apo-One Apoptosis Assay, 50 ng/ml, second block (ratio to Fc null) amounted to 2.8.
